The source of these data is publication PMC7528652, “Xrn1p acts at multiple steps in the budding-yeast RNAi pathway to enhance the efficiency of silencing”.

The series deals with T1, Ago1p (WT) (Naumovozyma castellii, UniProt D5SHI8 2-1299).
T1 sequence: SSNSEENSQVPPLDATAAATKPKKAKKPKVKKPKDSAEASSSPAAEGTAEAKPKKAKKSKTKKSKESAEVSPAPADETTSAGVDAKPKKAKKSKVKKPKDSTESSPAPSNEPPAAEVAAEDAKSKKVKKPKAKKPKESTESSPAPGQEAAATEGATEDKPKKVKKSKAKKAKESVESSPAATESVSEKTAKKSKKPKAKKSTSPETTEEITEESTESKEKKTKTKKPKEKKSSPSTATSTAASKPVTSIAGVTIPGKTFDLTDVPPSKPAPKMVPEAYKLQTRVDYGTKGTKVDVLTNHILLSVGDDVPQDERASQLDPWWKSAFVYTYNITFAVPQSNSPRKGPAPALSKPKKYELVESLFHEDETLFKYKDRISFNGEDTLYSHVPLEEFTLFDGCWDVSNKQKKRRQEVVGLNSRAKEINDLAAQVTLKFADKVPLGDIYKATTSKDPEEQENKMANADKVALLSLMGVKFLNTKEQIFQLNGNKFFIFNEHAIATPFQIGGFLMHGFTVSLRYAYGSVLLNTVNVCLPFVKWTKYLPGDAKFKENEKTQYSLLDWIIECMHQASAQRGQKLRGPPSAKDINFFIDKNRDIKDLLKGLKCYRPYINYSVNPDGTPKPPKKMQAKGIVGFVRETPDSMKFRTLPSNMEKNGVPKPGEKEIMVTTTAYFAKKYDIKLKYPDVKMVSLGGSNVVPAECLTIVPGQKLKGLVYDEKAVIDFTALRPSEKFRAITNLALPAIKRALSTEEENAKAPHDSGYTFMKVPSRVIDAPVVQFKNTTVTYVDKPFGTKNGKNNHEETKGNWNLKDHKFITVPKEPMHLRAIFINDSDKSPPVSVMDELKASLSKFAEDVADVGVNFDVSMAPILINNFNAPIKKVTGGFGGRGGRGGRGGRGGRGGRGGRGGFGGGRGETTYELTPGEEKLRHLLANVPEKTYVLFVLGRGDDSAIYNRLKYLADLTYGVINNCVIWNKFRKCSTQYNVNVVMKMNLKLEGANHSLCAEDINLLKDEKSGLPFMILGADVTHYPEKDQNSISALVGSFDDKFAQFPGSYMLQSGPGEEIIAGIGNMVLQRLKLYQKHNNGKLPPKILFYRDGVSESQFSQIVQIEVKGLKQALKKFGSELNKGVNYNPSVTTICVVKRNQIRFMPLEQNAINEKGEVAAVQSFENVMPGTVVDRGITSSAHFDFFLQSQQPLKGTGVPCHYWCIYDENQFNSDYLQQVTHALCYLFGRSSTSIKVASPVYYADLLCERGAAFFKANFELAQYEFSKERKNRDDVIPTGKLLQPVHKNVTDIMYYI
The experiment in a line: filter binding (nitrocellulose-nylon); preincubated with 200 nM WT Xrn1p: bound siRNA enhanced; 50 mM Hepes pH 7.6, 300 mM potassium glutamate, 10 mM NaCl, 5 mM Mg acetate, 1 mM EGTA, 1 mM EDTA, 10% glycerol, 0.01% NP-40, 5 mM DTT, 30 C. Particulars: protein: recombinant; tags: N-terminal 3xFLAG-SUMO-TEV in expression construct; tag state after purification not in material; label: 32P 5' end of guide strand (S68); 21 bp, 2 nt 3' overhangs on both strands.

B1: miR-20a siRNA duplex (dsRNA)
RNA 1: UAAAGUGCUUAUAGUGCAGGUAG
RNA 2: ACCUGCACUAUAAGCACUUUAAG
As for B1, the binding result is “binds”.
